According to patent US20220340635A1, “FUSION PROTEIN FOR TREATMENT OF METABOLIC DISEASE” (ZHEJIANG DOER BIOLOGICS CORPORATION, priority 2019, published 2022):
Read-outs that look alike come from different tables or passages of the source.

How the values were obtained:
[1] = mouse, in vivo; cited from earlier work
FGF21 signaling pathway = assay: FGF21 cell-based bioactivity assay, luciferase reporter in HEK293T cells transfected with GAL4DBD-ELK1 and KLB (β-klotho); details: Table 4, 6 h
Text: The puromycin resistance gene pac was amplified by PCR and cloned into pcDNA3.1(+) to replace the original G418 resistance gene. The GAL4DBD-ELK1, IRES. and KLB (β-klotho) genes were amplified by PCR and cloned into the pcDNA-Puro plasmid in sequence to construct the plasmid pcDNA-GAL4DBD-ELK1-IRES-KLB-Pero for cell transfection and screening. The constructed recombinant plasmid and the pFR-Luc plasmid (Agilent) were extracted by Omega E.Z.N.A.® Endo-Free Plasmid Midi Kit for future use. The cell transfection process was as follows: HEK293T cells were plated 3×10^5 cells per well in a 6-well plate and cultured overnight.
After washing the cells twice with Opti-MEM medium, 2 ml Opti-MEM medium was added. Cell transfection reagent was prepared according to the following proportion: Lipofectamine 2000 (6 μl ): pFR-Luc (4.6 μg): pcDNA-GAL4DBD-ELK1-IRES-KLB-Pura (1 μg). […]
The cells were digested with pancreatin to prepare a cell suspension (1×10^5 cells/ml, DMEM+5% FBS+1 μg/ml puromycin) after reaching confluence in the dish, followed by plating in a 96-well plate (100 μl per well), and culturing overnight. Samples of gradient concentrations were added and cultured for 6 h before fluorescence detection by the Luciferase Reporter Assay Kit (Lucifersae reporter kit, Ray Biotech, Cat:68-LuciR-S200).

[2] = monkey, in vivo; cited from earlier work

EC50 (FGF21 signaling pathway): 0.12 nM
B1: Natural FGF21: natural fibroblast growth factor 21, SEQ ID NO.87 (protein)
chain: HPIPDSSPLLQFGGQVRQRYLYTDDAQQTEAHLEIREDGTVGGAADQSPESLLQLKALKPGVIQILGVKTSRFLCQRPDGALYGSLHFDPEACSFRELLLEDGYNVYQSEAHGLPLHLPGNKSPHRDPAPRGPARFLPLPGLPPALPEPPGILAPQPPDVGSSDPLSMVGPSQGRSPSYAS
modifications: Amino acid sequence of natural FGF21
Serum half-life [1]: 0.5 h
Serum half-life [2]: 2 h
